According to patent publication US9878016B2, “IGFBP-3 derivatives and uses thereof” (INSERM (Institut National de la Sante et de la Recherche …, priority 2011, dated 2018):

B1: mini-IGFBP-3-Fc: Immunoadhesin fusion protein joining mini-IGFBP-3 to the Fc fragment of human IgG1 (protein)
chain: GASSAGLGPVVRCEPCDARALAQCAPPPAVCAELVREPGCGCCLTCALSEGQPCGIYTERCGSGLRCQPSPDEARPLQALLDGRGLCVNASAVSGGGSGGSGGSGGSGGETEYGPCRREMEDTLNHLKFLNVLSPRGVHIPNCDKKGFYKKKQCRPSKGRKRGFCWCVDKYGQPLPGYTTKGKEDVHCYSMQSK
modifications: left off: a dimerising Fc or GST
notes: Immunoadhesin fusion protein joining mini-IGFBP-3 to the Fc fragment of human IgG1

Legend:
[1] = Decay of concentrations in mouse plasma after intravenous injection (ELISA); assay type: in vivo; conditions: mice, 250 μg intravenously
Procedure: 250 μg of the indicated protein were injected intravenously to groups (n=3) of mice at time zero. Blood samples were drawn at the indicated time points, centrifuged and kept frozen. Concentrations of injected proteins were determined by an in-house sandwich type ELISA using anti-human IGFBP-3 specific monoclonal antibodies.
To pave the ground for future assessments of mini-IGFBP-3 in vivo activity, mini-IGFBP-3 and its derivatives were injected into mice. When measured using human-specific IGFBP-3 ELISA test, several kinetics could be observed.

IGF-I = IGF-I (Homo sapiens, UniProt P05019); test: Affinity for IGF-I: competition with 125I-IGF-1 tracer, Scatchard analysis; assay type: binding; conditions: association constant, IGF-I competitor
Procedure: (§1) The affinity of wild type (wt) IGFBP-3 and of mutated IGFBP-3 (mini-IGFBP-3) for IGF-I and IGF II was determined using ^125I-IGF-1 as a radioactive tracer. Various concentrations of IGF-I and IGF-II were used as competitors and affinity constants were determined by Scatchard analysis.

IGF-II [2] = target: T1, IGF-II (Homo sapiens, UniProt P01344); test: Affinity for IGF-II: competition with 125I-IGF-1 tracer, Scatchard analysis; assay type: binding; conditions: association constant, IGF-II competitor
T1 construct: before undergoing regulated endoproteolytic cleavage to the mature form (IGF-II)
Procedure: as §1

MMP-9 = MMP-9 (Homo sapiens, UniProt P14780); test: Proteolytic digestion by activated MMP-9 (SDS-PAGE); assay type: biochemical; conditions: substrate 20 μM, 1:10 molar ratio, enzyme activated with 1 mM APMA
Procedure: (§2) The ability of mini-IGFBP-3 to resist proteolytic digestion by Matrix Metalloproteinases, MMP-7 and MMP-9, is also currently being tested. MMP-7 and MMP-9 are expressed by tumor cells and are present in higher quantity in the bloodstream of cancer patients where they contribute to the degradation of native, endogenous IGFBP-3. In the experiments, these enzymes are first activated with 1 mM APMA. Mini-IGFBP-3 and full length IGFBP-3 are compared as substrate for activated MMP-7 and MMP-9. Concentrations of each substrate (20 μM) are incubated in a 1:10 molar ratio with either MMP-7 or MMP-9. At the end of the incubation period, proteins are analyzed by SDS-PAGE to evaluate their respective cleavage into fragments.

MMP-7 = target: T2, MMP-7 (Homo sapiens, UniProt P09237); test: Proteolytic digestion by activated MMP-7 (SDS-PAGE); assay type: biochemical; conditions: substrate 20 μM, 1:10 molar ratio, enzyme activated with 1 mM APMA
T2 sequence (P09237 95-267): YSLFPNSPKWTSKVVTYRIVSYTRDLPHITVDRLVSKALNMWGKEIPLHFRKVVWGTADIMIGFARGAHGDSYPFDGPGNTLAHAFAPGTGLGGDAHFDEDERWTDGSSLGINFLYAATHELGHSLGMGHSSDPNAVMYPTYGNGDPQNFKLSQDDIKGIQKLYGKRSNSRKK
Procedure: as §2

[3] = tested on: AKT phosphorylation in A549 (lung cancer); test: AKT phosphorylation, A549 cells; assay type: cell-based, human; conditions: different incubation times
Procedure: (§3) These effects are compared to those of ppp (see Example 5 for experimental details). FIG. 11(B) is a graph showing the effects of mini-IGFBP-3-Fc on the phosphorylation of AKT in MiaPaCa-2 cells (upper left), HT-29 cells (upper right) and A549 cells (lower left) and of […] on the phosphorylation of AKT in A549 cells (lower right) after different incubation times, as indicated (see Example 5 for experimental details).
(§4) The inhibiting activity of mini-IGFBP-3-Fc on AKT phosphorylation was also assessed in various human tumor cell lines: MiaPaCa-2 (pancreatic cancer), HT-29 (colon cancer) and A549 (lung cancer). The inhibiting activity of mini-IGFBP-3 on AKT phosphorylation was assessed A549 cells.

[4] = tested on: HT-29 human colorectal tumor xenografts; test: Tumor signalling in mice bearing HT-29 xenografts, 12 hours treatment (western immunoblots); assay type: in vivo, NMRI-nu mice; conditions: three i.p. injections (340 μg) every 3 hours, sacrifice at 12 hours; for Erk1/2 phosphorylation in tumors / Rb phosphorylation in tumors: vs untreated
Procedure: Thus, HT-29 xenografts were established in nude mice. After tumor had reached a critical size, mice were treated with either mini-IGFBP-3 or mini-IGFBP3-Fc in three i.p. injections separated by a three hours interval and mice were sacrificed after […]. Tumor MEK and PI3Kinase signalling pathways were assessed in these tumors, together with the cell cycle regulator Rb, by evaluating the phosphorylation status of AKT, ERK-1/2 and Rb, respectively, using western immunoblots.
More specifically, 2.5×10^6 HT-29 cells were injected s.c. into each flank of 5 weeks old NMRI-nu mice. Tumors were allowed to grow up to a volume of 500 mm^3 before mice were randomized into individual treatment groups (n=2) and received three i.p. injections (340 μg) of either mini-IGFBP-3 or mini-IGFBP-3-Fc every 3 hours. The control group was injected with saline. Twelve (12) hours after treatment initiation, mice were sacrificed and excised tumors were cut in half. One half was snap frozen in liquid nitrogen and stored at −80° C. The other half was fixed in Finfix, included in paraffin and processed for immuno-histochemistry. For Western blot analysis, tumors were homogenized in lysis buffer (10 mM Tris HCl at pH 7.4, 150 mM NaCl, 1% Nonidet P-40, 0.1% sodium deoxycholate, 0.1% SDS, 1 mM EDTA, 2 mM sodium orthovanadate, protease inhibitor tablet [Roche Molecular Biochemicals]). After centrifugation, protein concentrations were determined by the Bio-Rad protein assay (Bio-Rad). Fifteen micrograms of protein were run on a 4%-12% SDS-PAGE gel (Invitrogen). Membranes were blocked in 5% nonfat milk in TBS-T overnight at 4° C., washed with TBS-T, incubated with anti-mouse or anti-rabbit horseradish peroxidase-conjugated secondary antibodies in TBS-T for 1 hour at room temperature, and washed in TBS-T. The signal was visualized using an enhanced chemiluminescence solution and exposed to film. The blotting antibodies used wherein phosphor-Akt, Akt, mitogen-activated protein kinase ERK1/2, phosphor-mitogen-activated protein kinase pErk1/2, Rb (BD Biosciences), β-actin and G3PDH; antibodies were from Cell Signalling Technology unless otherwise stated.

Hep3B = test: Cell viability assay (WST-1), Hep3B; assay type: cell-based, human; conditions: 100 nM, 72 hours, 10% FCS
Procedure: (§5) The effects of mini-IGFBP-3-Fc on the proliferation and survival of three human tumor cell lines, Hep3B and HuH7—hepatocellular carcinoma cell lines) and INA-6 (multiple myeloma cell line), were studied. For each cell line cultivated in the presence of 10% fetal calf serum (FCS), the effect of mini-IGFBP-3-Fc were compared to the effect picropodophyllin (ppp), a compound known to interfere with the IGF1-R signalling pathway. A cell viability assay was performed 72 hours after initiation of the culture in the presence of mini-IGFVP-3-Fc (100 nM) or ppp (1 μM) in a medium containing 10% FCS by adding WST-1 and monitoring formazan conversion.

HuH7 = test: Cell viability assay (WST-1), HuH7; assay type: cell-based, human; conditions: 100 nM, 72 hours, 10% FCS
Procedure: as §5

IGF-II [5] = target: T1, IGF-II; test: Solid-phase assay: displacement of biotinylated IGF-II tracer from immobilized binding protein; conditions: increasing free IGF-II
Description: FIG. 10(A) is a graph showing the relative binding affinity of mini-IGFBP-3 and mini-IGFBP-3-Fc towards IGF-II. The solid phase assay used measured the ability of increasing concentrations of free IGF-II to displace binding of the biotinylated IGF-II tracer to mini-IGFBP-3 and mini-IGFBP-3-Fc immobilized on a support (See Example 5 for experimental details). FIG. 10(B) is a graph showing the effects of mini-IGFBP-3-Fc on proliferation and survival of three human tumor cell lines cultivated in the presence of 10% FCS: Hep3B, HuH7 and INA-6. The effects of mini-IGFBP-3-Fc are compared to the effects of picropodophyllin (ppp), a compound known to interfere with IGF-R signalling pathway (see Example 5 for experimental details).
A solid-phase assay was used to study the binding affinity of mini-IGFBP-3-Fc for IGF-II. In this assay, two binding proteins (mini-IGFBP-3 and mini-IGFBP-3-Fc) were immobilized to a support. They were incubated with the biotinylated IGF-II tracer, and then increasing concentrations of IGF-II were added.

INA-6 = test: Cell viability assay (WST-1), INA-6; assay type: cell-based, human; conditions: 100 nM, 72 hours, 10% FCS
Procedure: as §5

[6] = tested on: phosphorylation of AKT in INA-6 myeloma cells; test: AKT phosphorylation, INA-6 myeloma cells (western blot); assay type: cell-based; conditions: 100 nm; 3, 6 or 24 hours; 10% FCS
Procedure: The INA-6 myeloma cell line was grown in the presence of 10% FCS. The cells were incubated with mini-IGFBP-3 (100 nm) or ppp (1 μM) 3, 6 or 24 hours. After incubation, the cells were lysed using a lysis buffer, and cell extracts (normalized for protein contents) were loaded on SDS-PAGE gel, transferred onto nitrocellulose membrane, which was further incubated with a monoclonal antibody directed against the […] residue of the AKT protein. The membrane was also re-probed after stripping with an anti-actin antibody to check for equal loading.

[7] = tested on: AKT phosphorylation in HT-29 (colon cancer); test: AKT phosphorylation, HT-29 cells; assay type: cell-based, human; conditions: different incubation times
Procedure: as §3, §4

[8] = tested on: AKT phosphorylation in MiaPaCa-2 (pancreatic cancer); test: AKT phosphorylation, MiaPaCa-2 cells; assay type: cell-based, human; conditions: different incubation times
Procedure: as §3, §4

T1 sequence (P01344 25-91 limits assumed): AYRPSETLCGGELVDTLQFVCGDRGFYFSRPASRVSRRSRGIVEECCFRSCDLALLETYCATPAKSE
Chain of MMP-9 (P14780 107-707 limits assumed): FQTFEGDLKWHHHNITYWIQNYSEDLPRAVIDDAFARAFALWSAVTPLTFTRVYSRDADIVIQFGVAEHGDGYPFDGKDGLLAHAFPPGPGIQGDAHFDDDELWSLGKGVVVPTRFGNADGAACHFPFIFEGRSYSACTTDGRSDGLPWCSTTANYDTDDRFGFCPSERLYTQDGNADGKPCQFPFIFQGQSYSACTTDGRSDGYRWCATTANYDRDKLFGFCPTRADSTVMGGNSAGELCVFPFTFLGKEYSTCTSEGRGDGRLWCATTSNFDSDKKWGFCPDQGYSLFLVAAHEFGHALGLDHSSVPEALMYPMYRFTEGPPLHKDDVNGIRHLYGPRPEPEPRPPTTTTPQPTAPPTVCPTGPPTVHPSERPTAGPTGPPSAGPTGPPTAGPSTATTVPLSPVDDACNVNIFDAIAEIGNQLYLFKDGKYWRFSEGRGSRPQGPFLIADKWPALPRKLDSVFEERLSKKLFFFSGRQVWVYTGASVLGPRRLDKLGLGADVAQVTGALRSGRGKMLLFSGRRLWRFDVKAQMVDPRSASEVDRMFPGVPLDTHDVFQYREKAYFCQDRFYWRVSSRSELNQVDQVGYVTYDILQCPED
Chain of IGF-I (P05019 49-118 limits assumed): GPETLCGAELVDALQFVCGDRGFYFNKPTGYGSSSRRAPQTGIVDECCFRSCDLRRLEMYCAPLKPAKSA

Molecule	fraction of the initial dose that left the bloodstream in the first 3-4 hours [1]	remaining fraction that disappeared very slowly until 48 hours [1]	affinity constant for IGF-I (IGF-I) [M⁻¹]	affinity constant for IGF-II (IGF-II [2]) [M⁻¹]	cleavage by MMP-9 (MMP-9)	cleavage by MMP-7 (MMP-7)	AKT phosphorylation in A549 cells [3]	AktS473 phosphorylation in tumors [4]	mitotic index compared to untreated tumors [4] [%]	Erk1/2 phosphorylation in tumors [4]	Rb phosphorylation in tumors [4]	half-life of serum concentration ([1]; single slope kinetics)	proliferation and survival of Hep3B (Hep3B)	proliferation and survival of HuH7 (HuH7)	apparent affinity for IGF-II compared with unfused mini-IGFBP-3 (IGF-II [5])	proliferation and survival of INA-6 (INA-6)	phosphorylation of AKT in INA-6 cells [6]	AKT phosphorylation in HT-29 cells [7]	AKT phosphorylation in MiaPaCa-2 cells [8]
mini-IGFBP-3: Human IGFBP-3 mutein: 85 central-domain residues (95 to 179) replaced by 15 amino acid spacer GGGSGGSGGSGGSGG (SEQ ID NO: 4)	80-90%	10-20%	2.4e+10	3.14e+10	resists this proteolytic attack	resists this proteolytic attack	able to block the AKT phosphorylation	abolished	−12	considerably decreased	decreased								
wt IGFBP-3: Recombinant wild type human IGFBP-3 with hexahistidine N-terminal extension, comparator [reference compound]			2.96e+10	3.5e+10	digested	digested													
B1							able to block the AKT phosphorylation	abolished	−12	considerably decreased	decreased	about 12 hours	anti-proliferative activity	anti-proliferative activity	higher apparent affinity	anti-proliferative activity	inhibiting effects	able to block the AKT phosphorylation	able to block the AKT phosphorylation
